Experimental data published in patent US20220411530A1 (NANTONG YICHEN BIOPHARMA, published 2022).

Tests used:
[1] = biological target: T1, CD3 on Jurkat (CD3+) cells (Homo sapiens (Human), UniProt P07766 23-207; P04234 22-171; P09693 23-182); experiment: flow cytometry on Jurkat (CD3+) cells
T1 construct: also called Jurkat T cells

[2] = biological target: T2, PSMA on the surface of LnCap cells (human, UniProt Q04609 1-750); experiment: cell-based or functional assay
[3] = biological target: T2, PSMA on the surface of LnCap cells; experiment: flow cytometry on LnCap (PSMA+) cells

T2 sequence (Q04609 whole entry): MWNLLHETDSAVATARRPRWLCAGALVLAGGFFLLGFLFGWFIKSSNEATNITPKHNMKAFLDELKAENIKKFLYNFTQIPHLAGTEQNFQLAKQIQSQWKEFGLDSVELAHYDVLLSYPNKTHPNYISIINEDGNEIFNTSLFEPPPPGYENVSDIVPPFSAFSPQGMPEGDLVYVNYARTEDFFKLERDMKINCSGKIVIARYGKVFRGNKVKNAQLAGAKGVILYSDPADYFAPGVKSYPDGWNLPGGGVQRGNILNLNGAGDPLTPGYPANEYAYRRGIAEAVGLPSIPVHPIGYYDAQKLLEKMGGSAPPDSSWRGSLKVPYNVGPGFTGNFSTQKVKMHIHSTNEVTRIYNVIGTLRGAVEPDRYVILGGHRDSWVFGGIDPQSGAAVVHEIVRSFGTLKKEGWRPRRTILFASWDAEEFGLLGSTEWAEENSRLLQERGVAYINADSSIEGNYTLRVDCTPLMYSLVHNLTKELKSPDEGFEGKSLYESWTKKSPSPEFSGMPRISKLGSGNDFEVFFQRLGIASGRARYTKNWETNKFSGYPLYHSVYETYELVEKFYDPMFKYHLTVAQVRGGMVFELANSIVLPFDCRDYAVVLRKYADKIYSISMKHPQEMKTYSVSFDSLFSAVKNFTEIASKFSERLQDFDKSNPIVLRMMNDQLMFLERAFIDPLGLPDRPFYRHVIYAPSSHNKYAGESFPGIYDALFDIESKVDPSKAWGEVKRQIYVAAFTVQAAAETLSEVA
T1 sequence (P07766 23-207 limits assumed, form in doubt, chain 1 of 3): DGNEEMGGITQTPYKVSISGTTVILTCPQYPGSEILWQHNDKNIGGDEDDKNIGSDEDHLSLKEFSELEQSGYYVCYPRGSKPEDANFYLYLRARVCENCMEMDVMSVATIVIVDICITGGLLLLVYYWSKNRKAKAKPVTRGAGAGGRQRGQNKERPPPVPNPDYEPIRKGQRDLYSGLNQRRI
T1 sequence (P04234 22-171 limits assumed, form in doubt, chain 2 of 3): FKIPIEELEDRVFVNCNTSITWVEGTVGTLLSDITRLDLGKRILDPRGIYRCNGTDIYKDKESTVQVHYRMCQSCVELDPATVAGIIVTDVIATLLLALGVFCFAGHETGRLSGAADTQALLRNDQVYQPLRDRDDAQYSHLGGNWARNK
T1 sequence (P09693 23-182 limits assumed, form in doubt, chain 3 of 3): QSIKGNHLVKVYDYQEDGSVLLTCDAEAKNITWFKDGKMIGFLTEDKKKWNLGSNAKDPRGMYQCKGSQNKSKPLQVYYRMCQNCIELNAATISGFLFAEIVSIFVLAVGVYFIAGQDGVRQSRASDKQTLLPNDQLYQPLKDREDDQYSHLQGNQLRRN

B1: aCD3-aPSMA bispecific antibody (bispecific antibody)
chain 1: not shown
chain 2: EVQLVESGGGLVQPGGSLRLSCAASGFTFNTYAMNWVRQAPGKGLEWVARIRSKYNNYATYYADSVKDRFTISRDDSKNTLYLQMNSLRAEDTAVYYCVRHGNFGNSYVSWFAYWGQGTLVTVSS
notes: also called the bispecific antibody
With B1 the EC50 [1] was 0.51 nM, the “LDH Killing EC50 (pM)” value [2] was 184 pM and the EC50 [3] was 0.05 nM.
